Data taken from publication PMC9156758, “Cryo-EM structures of human A2ML1 elucidate the protease-inhibitory mechanism of the A2M family” (Nature Communications, 2022).

Columns and labels:
Assay in all cases: cell-based or functional assay
[1] = biological target: T1, Human neutrophil elastase (HNE) (human, UniProt P08246 30-267)
T1 sequence (looked up): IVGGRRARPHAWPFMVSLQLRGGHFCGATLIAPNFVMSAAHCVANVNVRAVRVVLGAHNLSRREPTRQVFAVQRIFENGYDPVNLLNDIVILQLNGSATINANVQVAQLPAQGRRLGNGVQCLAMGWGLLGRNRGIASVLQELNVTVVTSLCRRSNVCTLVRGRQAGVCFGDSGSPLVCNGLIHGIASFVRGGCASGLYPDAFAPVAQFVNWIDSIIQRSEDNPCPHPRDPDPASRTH

[2] = biological target: Bovine pancreatic α-chymotrypsin (bovine)
[3] = biological target: T2, Thermolysin from Geobacillus stearothermophilus (Geobacillus stearothermophilus, UniProt P00800 233-548)
T2 sequence (looked up): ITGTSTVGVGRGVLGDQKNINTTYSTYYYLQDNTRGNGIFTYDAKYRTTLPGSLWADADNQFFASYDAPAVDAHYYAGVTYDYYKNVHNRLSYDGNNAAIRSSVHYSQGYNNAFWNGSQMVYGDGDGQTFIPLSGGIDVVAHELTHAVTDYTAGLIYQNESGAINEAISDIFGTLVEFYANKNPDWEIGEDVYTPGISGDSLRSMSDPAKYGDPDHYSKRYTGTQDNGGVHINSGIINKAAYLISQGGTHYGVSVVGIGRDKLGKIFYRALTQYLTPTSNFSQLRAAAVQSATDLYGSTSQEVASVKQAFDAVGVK

B1: Human alpha-2 macroglobulin-like 1 (A2ML1), recombinant wild type, native (natural protein, UniProt A8K2U0 18-1454, looked up)
chain: EELPNYLVTLPARLNFPSVQKVCLDLSPGYSDVKFTVTLETKDKTQKLLEYSGLKKRHLHCISFLVPPPAGGTEEVATIRVSGVGNNISFEEKKKVLIQRQGNGTFVQTDKPLYTPGQQVYFRIVTMDSNFVPVNDKYSMVELQDPNSNRIAQWLEVVPEQGIVDLSFQLAPEAMLGTYTVAVAEGKTFGTFSVEEYVLPKFKVEVVEPKELSTVQESFLVKICCRYTYGKPMLGAVQVSVCQKANTYWYREVEREQLPDKCRNLSGQTDKTGCFSAPVDMATFDLIGYAYSHQINIVATVVEEGTGVEANATQNIYISPQMGSMTFEDTSNFYHPNFPFSGKIRVRGHDDSFLKNHLVFLVIYGTNGTFNQTLVTDNNGLAPFTLETSGWNGTDVSLEGKFQMEDLVYNPEQVPRYYQNAYLHLRPFYSTTRSFLGIHRLNGPLKCGQPQEVLVDYYIDPADASPDQEISFSYYLIGKGSLVMEGQKHLNSKKKGLKASFSLSLTFTSRLAPDPSLVIYAIFPSGGVVADKIQFSVEMCFDNQVSLGFSPSQQLPGAEVELQLQAAPGSLCALRAVDESVLLLRPDRELSNRSVYGMFPFWYGHYPYQVAEYDQCPVSGPWDFPQPLIDPMPQGHSSQRSIIWRPSFSEGTDLFSFFRDVGLKILSNAKIKKPVDCSHRSPEYSTAMGAGGGHPEAFESSTPLHQAEDSQVRQYFPETWLWDLFPIGNSGKEAVHVTVPDAITEWKAMSFCTSQSRGFGLSPTVGLTAFKPFFVDLTLPYSVVRGESFRLTATIFNYLKDCIRVQTDLAKSHEYQLESWADSQTSSCLCADDAKTHHWNITAVKLGHINFTISTKILDSNEPCGGQKGFVPQKGRSDTLIKPVLVKPEGVLVEKTHSSLLCPKGKVASESVSLELPVDIVPDSTKAYVTVLGDIMGTALQNLDGLVQMPSGCGEQNMVLFAPIIYVLQYLEKAGLLTEEIRSRAVGFLEIGYQKELMYKHSNGSYSAFGERDGNGNTWLTAFVTKCFGQAQKFIFIDPKNIQDALKWMAGNQLPSGCYANVGNLLHTAMKGGVDDEVSLTAYVTAALLEMGKDVDDPMVSQGLRCLKNSATSTTNLYTQALLAYIFSLAGEMDIRNILLKQLDQQAIISGESIYWSQKPTPSSNASPWSEPAAVDVELTAYALLAQLTKPSLTQKEIAKATSIVAWLAKQHNAYGGFSSTQDTVVALQALAKYATTAYMPSEEINLVVKSTENFQRTFNIQSVNRLVFQQDTLPNVPGMYTLEASGQGCVYVQTVLRYNILPPTNMKTFSLSVEIGKARCEQPTSPRSLTLTIHTSYVGSRSSSNMAIVEVKMLSGFSPMEGTNQLLLQQPLVKKVEFGTDTLNIYLDELIKNTQTYTFTISQSVLVTNLKPATIKVYDYYLPDEQATIQYSDPCE
modifications: internal thioester Cys970-Gln973; N-glycans (Asn120, Asn328, Asn857 named)
inhibition of β-casein-cleaving activity at a 4:1 A2ML1:protease molar ratio [1]: ~10 % inhibited
inhibition of β-casein-cleaving activity at a 4:1 A2ML1:protease molar ratio [2]: ~65 % inhibited
inhibition of thermolysin's β-casein-cleaving activity, A2ML1:thermolysin molar ratios up to 4:1, without BAPN [3]: ~95 % inhibited
